# Test results from IntAct's records for PubMed 36931259.
# B1: 14-3-3 protein sigma (Homo sapiens), P31947 (parent)
# chain: MERASLIQKAKLAEQAERYEDMAAFMKGAVEKGEELSCEERNLLSVAYKNVVGGQRAAWRVLSSIEQKSNEEGSEEKGPEVREYREKVETELQGVCDTVLGLLDSHLIKEAGDAESRVFYLKMKGDYYRYLAEVATGDDKKRIIDSARSAYQEAMDISKKEMPPTNPIRLGLALNFSVFHYEIANSPEEAISLAKTTFDEAMADLHTLSEDSYKDSTLIMQLLRDNLTLWTADNAGEEGGEAPQEPQS
# partner: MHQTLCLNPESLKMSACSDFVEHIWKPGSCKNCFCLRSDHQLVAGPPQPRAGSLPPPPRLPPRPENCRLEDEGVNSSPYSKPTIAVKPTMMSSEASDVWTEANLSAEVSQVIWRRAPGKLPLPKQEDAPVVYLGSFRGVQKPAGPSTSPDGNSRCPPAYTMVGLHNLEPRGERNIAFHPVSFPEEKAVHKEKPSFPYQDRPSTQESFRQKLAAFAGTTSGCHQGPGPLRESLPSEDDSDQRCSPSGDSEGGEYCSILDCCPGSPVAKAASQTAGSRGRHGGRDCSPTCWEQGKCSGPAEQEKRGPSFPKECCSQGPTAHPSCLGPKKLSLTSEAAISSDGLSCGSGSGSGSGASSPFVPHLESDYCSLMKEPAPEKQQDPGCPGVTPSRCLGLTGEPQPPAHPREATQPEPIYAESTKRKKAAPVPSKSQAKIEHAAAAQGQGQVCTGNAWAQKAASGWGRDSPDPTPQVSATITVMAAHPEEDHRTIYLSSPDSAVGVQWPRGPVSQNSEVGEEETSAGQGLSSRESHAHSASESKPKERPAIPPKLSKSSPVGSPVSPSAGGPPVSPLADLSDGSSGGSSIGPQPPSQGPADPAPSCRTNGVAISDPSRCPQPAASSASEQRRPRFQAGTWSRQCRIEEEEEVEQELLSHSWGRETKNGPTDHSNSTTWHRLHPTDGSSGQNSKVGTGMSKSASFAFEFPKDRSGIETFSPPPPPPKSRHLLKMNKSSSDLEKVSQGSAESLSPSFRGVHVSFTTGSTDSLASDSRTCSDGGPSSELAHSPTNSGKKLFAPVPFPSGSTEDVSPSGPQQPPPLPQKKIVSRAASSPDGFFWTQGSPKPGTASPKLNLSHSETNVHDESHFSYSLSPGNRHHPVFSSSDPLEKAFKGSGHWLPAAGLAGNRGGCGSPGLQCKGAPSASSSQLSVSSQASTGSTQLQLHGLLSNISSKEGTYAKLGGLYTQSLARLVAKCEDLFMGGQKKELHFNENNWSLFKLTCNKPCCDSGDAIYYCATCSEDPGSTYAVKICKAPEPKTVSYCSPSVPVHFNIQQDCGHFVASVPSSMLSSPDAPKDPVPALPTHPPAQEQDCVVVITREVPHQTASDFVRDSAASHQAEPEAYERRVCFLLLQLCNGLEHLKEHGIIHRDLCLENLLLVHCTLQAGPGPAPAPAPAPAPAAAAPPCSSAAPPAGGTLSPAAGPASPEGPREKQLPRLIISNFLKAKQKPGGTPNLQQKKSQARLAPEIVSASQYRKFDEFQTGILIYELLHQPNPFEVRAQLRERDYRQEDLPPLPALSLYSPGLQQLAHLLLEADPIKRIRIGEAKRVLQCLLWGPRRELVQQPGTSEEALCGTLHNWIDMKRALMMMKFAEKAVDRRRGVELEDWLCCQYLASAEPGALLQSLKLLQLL
# B2: 14-3-3 protein sigma (Homo sapiens), P31947 (parent)
# chain: B1 chain
# partner: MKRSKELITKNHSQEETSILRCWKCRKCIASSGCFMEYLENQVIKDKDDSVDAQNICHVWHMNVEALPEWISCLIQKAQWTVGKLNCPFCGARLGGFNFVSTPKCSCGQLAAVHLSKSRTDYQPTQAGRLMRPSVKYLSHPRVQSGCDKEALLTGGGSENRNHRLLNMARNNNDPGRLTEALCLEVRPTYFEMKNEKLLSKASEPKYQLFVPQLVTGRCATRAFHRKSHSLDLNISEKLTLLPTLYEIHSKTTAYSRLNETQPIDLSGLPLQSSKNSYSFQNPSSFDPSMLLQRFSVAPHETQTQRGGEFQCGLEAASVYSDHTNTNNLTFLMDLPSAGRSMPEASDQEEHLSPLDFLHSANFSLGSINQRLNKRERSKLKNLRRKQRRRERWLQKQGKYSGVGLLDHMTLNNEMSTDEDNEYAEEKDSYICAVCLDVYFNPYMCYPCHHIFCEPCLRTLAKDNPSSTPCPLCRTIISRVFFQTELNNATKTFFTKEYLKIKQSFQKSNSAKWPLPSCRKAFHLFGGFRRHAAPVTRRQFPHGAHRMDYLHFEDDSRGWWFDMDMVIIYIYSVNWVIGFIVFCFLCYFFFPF
# B3: 14-3-3 protein sigma (Homo sapiens), P31947 (parent)
# chain: B1 chain
# partner: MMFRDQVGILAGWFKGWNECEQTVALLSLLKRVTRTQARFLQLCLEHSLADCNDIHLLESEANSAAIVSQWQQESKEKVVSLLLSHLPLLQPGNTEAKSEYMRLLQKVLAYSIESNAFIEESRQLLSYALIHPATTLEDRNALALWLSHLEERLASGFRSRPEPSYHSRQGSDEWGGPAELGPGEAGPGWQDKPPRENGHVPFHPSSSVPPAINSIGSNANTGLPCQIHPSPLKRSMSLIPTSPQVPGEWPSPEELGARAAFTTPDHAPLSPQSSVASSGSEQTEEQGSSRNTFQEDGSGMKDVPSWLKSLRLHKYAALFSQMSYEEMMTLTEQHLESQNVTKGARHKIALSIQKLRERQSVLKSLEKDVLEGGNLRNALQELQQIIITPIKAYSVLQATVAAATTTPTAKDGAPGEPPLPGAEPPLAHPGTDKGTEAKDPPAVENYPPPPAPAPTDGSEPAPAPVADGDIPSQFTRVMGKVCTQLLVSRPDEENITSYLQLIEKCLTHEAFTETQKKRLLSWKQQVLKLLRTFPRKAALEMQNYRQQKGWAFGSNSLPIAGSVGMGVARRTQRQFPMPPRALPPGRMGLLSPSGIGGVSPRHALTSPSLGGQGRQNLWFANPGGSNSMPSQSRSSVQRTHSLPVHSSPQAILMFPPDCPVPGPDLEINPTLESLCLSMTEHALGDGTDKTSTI
# B4: 14-3-3 protein sigma (Homo sapiens), P31947 (parent)
# chain: B1 chain
# partner: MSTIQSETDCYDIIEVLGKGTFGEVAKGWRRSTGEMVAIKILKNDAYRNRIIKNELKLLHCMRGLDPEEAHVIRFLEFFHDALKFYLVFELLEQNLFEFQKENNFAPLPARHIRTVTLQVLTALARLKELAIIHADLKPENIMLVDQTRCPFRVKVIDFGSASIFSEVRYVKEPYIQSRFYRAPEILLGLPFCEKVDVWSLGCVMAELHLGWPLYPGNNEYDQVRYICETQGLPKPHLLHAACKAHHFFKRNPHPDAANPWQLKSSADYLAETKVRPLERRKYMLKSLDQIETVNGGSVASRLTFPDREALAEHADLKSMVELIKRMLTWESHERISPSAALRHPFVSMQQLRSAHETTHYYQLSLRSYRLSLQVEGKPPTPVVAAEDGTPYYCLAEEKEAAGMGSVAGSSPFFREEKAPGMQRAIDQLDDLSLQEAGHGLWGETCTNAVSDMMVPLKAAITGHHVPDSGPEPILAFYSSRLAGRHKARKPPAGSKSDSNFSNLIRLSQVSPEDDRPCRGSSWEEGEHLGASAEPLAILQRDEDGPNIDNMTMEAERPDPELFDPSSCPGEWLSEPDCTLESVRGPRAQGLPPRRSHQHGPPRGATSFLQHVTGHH
# B5: 14-3-3 protein sigma (Homo sapiens), P31947 (parent)
# chain: B1 chain
# partner: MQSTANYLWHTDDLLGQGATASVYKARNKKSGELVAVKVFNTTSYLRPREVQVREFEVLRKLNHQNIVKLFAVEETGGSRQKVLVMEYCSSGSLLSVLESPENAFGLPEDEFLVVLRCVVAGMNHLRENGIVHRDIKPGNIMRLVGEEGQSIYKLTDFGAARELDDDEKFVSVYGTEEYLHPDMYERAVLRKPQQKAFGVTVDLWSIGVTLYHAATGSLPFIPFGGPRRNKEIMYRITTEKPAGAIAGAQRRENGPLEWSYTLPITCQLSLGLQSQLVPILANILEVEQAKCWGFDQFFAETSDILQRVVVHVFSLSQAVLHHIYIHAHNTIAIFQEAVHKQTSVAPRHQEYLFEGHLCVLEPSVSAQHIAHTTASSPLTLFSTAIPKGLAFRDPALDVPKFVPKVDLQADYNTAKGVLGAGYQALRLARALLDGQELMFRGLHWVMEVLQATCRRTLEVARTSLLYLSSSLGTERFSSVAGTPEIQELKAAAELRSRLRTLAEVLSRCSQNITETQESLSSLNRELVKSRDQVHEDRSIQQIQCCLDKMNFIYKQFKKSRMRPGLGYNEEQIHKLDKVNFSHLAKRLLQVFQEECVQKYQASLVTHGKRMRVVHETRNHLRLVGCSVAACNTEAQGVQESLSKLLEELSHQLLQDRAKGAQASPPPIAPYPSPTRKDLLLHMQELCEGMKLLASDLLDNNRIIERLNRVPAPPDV
# Variants of: B1
# Details: with prag1_human PRAG1, Q86YV5
row,effect of a mutation on the interaction,Variant
1,decreasing interaction strength,K49E;R56E;V178D

# Variants of: B2
# Details: with rn180_human RNF180, Q86T96
row,effect of a mutation on the interaction,Variant
1,decreasing interaction strength,K49E;R56E;V178D

# Variants of: B3
# Details: with smag2_human SAMD4B
row,effect of a mutation on the interaction,Variant
1,decreasing interaction strength,K49E;R56E;V178D

# Variants of: B4
# Details: with hipk4_human HIPK4, Q8NE63
row,effect of a mutation on the interaction,Variant
1,decreasing interaction strength,K49E;R56E;V178D

# Variants of: B5
# Details: with ikke_human IKBKE
row,effect of a mutation on the interaction,Variant
1,decreasing interaction strength,K49E;R56E;V178D
